Measured values as given in the supplement of paper PMC10567573.

B1: PTPRD (parent)
chain: PVVSMDLDPQPITDEEEGLIWVVG
B2: MYBL2 (parent)
chain: FPNRTDQQCQYRWLRVLNPDLVKG

Variants of: B1
Test: protein stability index of a GFP-peptide fusion (GPS, HEK-293T) (PSI 1-6); higher = more stable
Details: c terminus: a fixed tail appended
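Further: lentivirally expressed fusions sorted by FACS into six bins by GFP to DsRed ratio, PSI derived from sequencing read proportions per bin multiplied by bin number.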

Protein stability index, by site and new letter:
D6: Q 3.5; K 2.99; R 3.67; S 3.4; F 2.36; C 3.6; I 2.56; N 4.53; Y 2.25; V 2.7; T 3.25; A 4.22; L 3.35; W 1.94; P 3.48; E 4.24; H 3.24
S4: Y 1.99; L 2.89; I 2.28; R 3.82; W 1.83; E 5.11; Q 4.02; M 2.75; P 4.45; N 4.01; G 4.17; H 3.31; T 3.73; V 2.42; D 3.92; C 3.56; F 2.65
V2: S 4.51; R 4.6; A 4.31; F 3.16; C 4.26; N 3.84; P 4.05; T 4.09; H 3.67; E 4.23; K 2.77; L 3.93; I 3.05; G 4.23; D 3.95; Q 3.94; M 4.2; Y 3.56
V3: L 3.74; F 3.86; T 4.66; D 3.91; K 3.48; Q 3.87; G 3.98; I 3.49; E 4.81; A 3.17; P 3.82; Y 3.88; S 3.18; W 4.09; H 3.38; M 3.61; N 3.92
M5: A 4.97; S 3.77; T 4.01; Y 3.54; C 4.64; F 3.48; G 5.16; W 3.51; R 4.31; H 4.66; D 4.71; L 3.97; K 4.64; V 3.92; N 4.7; Q 4.62
D8: C 2.61; Y 2.74; H 2.1; M 3.29; T 3.61; I 2.53; N 3.55; P 3.56; A 3.73; G 3.8; L 3.31; V 3.25; W 2.52; E 3.92
P1: Q 3.81; C 3.12; W 2.17; D 4.28; H 3.02; R 2.62; E 3.2; T 2.22; L 1.79; F 1.19; Y 1.52; G 3.77; V 1.86; N 3.58
P9: C 3.67; A 2.88; W 2.96; R 3.58; Q 4.05; N 4.12; Y 3.41; D 4.52; F 1.93; I 3.23; V 3.19; G 4.54; K 3.71; T 4.18
Q10: Y 2.92; M 3.88; L 3.74; T 3.73; G 3.99; N 3.42; P 3.75; W 3.8; R 3.89; S 2.77; K 3.76; D 4.27; I 4.09; A 3.56; C 3.08
L7: R 4.4; W 3.52; C 3.54; P 3.4; A 4.31; F 4.79; V 4.01; Y 4.27; I 3.94; E 4.89; H 3.48; G 4.87; T 2.63; M 3.29; S 4.33; N 4.74

Variants of: B2
Test: as above
Details: c terminus: a fixed tail appended

Protein stability index: each site, then its substitutions
G24: N 2.44; T 1.87; R 1.74; W 1.55; V 1.71; Q 1.91; P 2.26; Y 1.85; S 1.68
